The source of these data is US20080095768A1 (PDL BIOPHARMA, published 2008).

This test addresses T1, human CS1 (CD2-subset1) (human, UniProt Q9NQ25 23-335).
T1 construct: Endogenous CS1 on primary myeloma cells / CD138+ tissue plasma cells; also called SLAMF7; CRACC
Briefly: flow cytometry on primary myeloma cells and IHC on normal tissues, using HuLuc63 as the detecting antibody. Here is the method:
Gene expression was assessed using an Affymetrix GeneChip array. Protein expression was measured by flow cytometry, and immunohistochemistry (IHC), using HuLuc63, a novel humanized anti-CS1 mAb. HuLuc63-mediated lysis of myeloma cells via antibody dependent cellular cytotoxicity (ADCC) was measured by ⁵¹Cr-release.
CS1 mRNA was detected in CD138+ purified plasma cells from >95% of healthy donors, newly diagnosed myeloma patients, and those with relapsed myeloma (FIG. 1). […] Finally, we determined that HuLuc63 could induce killing of myeloma cells using purified allogeneic NK cells (FIG. 2). […] Our data support the potential clinical utility of CS1-targeted therapy.

B1: HuLuc63 (antibody, IgG1, V domains shown)
VH: EVQLVESGGGLVQPGGSLRLSCAASGFDFSRYWMSWVRQAPGKGLEWIGEINPDSSTINYAPSLKDKFIISRDNAKNSLYLQMNSLRAEDTAVYYCARPDGNYWYFDVWGQGTLVTVSS
VL: DIQMTQSPSSLSASVGDRVTITCKASQDVGIAVAWYQQKPGKVPKLLIYWASTRHTGVPDRFSGSGSGTDFTLTISSLQPEDVATYYCQQYSSYPYTFGQGTKVEIK
notes: Humanized recombinant monoclonal IgG1; also called HyLuc63; humanized anti-CS1 mAb
With B1, the binding result is “binds”.
